Reference: publication PMC3792889

Target: Growth factor receptor protein binding protein 2 (Grb2), endogenous (mouse (endogenous in STHdhQ7/7, STHdhQ111/111 and Neuro2A cells)) (UniProt Q60631)
Assay: co-IP; extracts of Neuro2A cells transfected with 23Q or 145Q Httex1 GFP; precipitated with anti-Grb2 antibody and Protein A/G beads; blot with anti-GFP; densitometry, n=3

Sequence of UniProt Q60631 (Q60631 whole entry): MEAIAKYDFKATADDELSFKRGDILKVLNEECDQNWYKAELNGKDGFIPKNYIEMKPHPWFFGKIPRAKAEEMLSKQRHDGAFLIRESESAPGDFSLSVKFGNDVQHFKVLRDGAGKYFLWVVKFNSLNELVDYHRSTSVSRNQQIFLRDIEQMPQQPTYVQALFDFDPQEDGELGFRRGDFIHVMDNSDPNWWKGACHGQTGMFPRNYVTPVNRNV

Work on 145Q Htt exon1 GFP (domain or fragment) yielded a fold precipitation against 23Q Httex1 GFP of 2 fold.
